In general, Km refers to the concentration of substrate that gives half-maximal velocity. Usually kcat stands for the number of substrate molecules converted per active site and unit of time at saturation. Usually kcat/Km stands for the turnover number divided by the Michaelis constant.

Substrate in data set [1]: OC[C@H]1O[C@@H](O[C@H]2[C@H](O)[C@@H](CO)OC(O)[C@@H]2O)[C@H](O)[C@@H](O)[C@@H]1O
Briefly: purified protein. To be noted: 60.0 °C.

Substrate in data set [2]: O=[N+]([O-])c1ccc(O[C@@H]2O[C@H](CO)[C@@H](O)[C@H](O)[C@H]2O)cc1
Put plainly: purified protein. The conditions noted are these: 60.0 °C.

B1: TxGH116 β-glucosidase (Thermoanaerobacterium xylanolyticum LX-11) (protein)
chain: LTGCSEKININEDKISHKIDIPDSAWTIGIGEKFKNAGHPNVKYPMIDDSYVQGAPLGGFGAGTIGRTYNGGFSRWHLEIGKNKYTTVYANQFSVFQKVEGNKDGVAQVLYAGEPENGYLSSWKWDYPKESGMYYALYPNSWYTYTNKDLPVQLAVKQFSPIIPYNYKETSYPVAVFKWTAYNPTNKNVDVSIMFTWQNMIGFFGKQVNVNSGNFNKIIKDKSKDSEIVAAVMGNISNDNEEWNGEYSIGVKKVPGVDISYKAKFVTTGDGSDLWHEFSKNGILDNKDDETPTKQDGIGSAIAVNFKLQPGQTIEVPFALSWDLPIMKFGGGDKWYKMYTKYFGKNGKNSFAILKEALNNYQKWEKMIDDWQKPILSNKSKPDWYKTALFNELYYLADGGTAWENGKVGEKDKRTNNMFGLLECFDYNYYETLDVRFYGSFPLVMLWPDIEKQVMRQFADTINVQDSSEFKVGSNGAMAVKKVQGMIPHDLGSSYALPWIKINAYDWQNPNIWKDLNSKYVLLVYRDYVLTGKTDKEFLKYTWKSVKTALDKLKEMDKDNDGIPDNEGIPDQTYDTWSMKGTSAYCGSLWLAALKAAQEIGKVLKDNEAYIKYNEWYKIAQQNFEKELWNGEYYNFDTESDHKDSIMADQLAGQWYADILRLGDILPKDHVQKALKKIYEFNVMKFENGKMGAVNGMRPDGIVDESDIQAQEVWTGVTYALASFMKYRGMTEEAYNTAYGVYKMTYDKSGKGYWFRTPEAWTKDGNYRASMYMRPLSIWSMEVNYNEV
On to B1, for which, in the data set “purified protein [1]”, the Michaelis constant (Km) came to 270 ± 18 µM, the kcat was 41.4 ± 0.7 s⁻¹ and the catalytic efficiency (kcat/Km) turned out to be 153000 M⁻¹ s⁻¹. Besides, in “purified protein [2]”, the Michaelis constant (Km) worked out at 180 ± 8 µM, the kcat turned out to be 49 ± 0.8 s⁻¹ and the specificity constant (kcat/Km) is 272000 M⁻¹ s⁻¹.

Values taken from PMC4949581.
